Reference: US20190032056, “STEM-LOOP COMPOSITIONS AND METHODS FOR INHIBITING FACTOR D” (Vitrisa Therapeutics, Inc., published 2019)

How the values were obtained:
complement Factor D (fD) [1] = target: T1, complement Factor D (fD) (Homo sapiens, UniProt P00746 SEQ:1-228); test: competition; signal reduced about 75-90% by 100 nM AFD anti-fD Fab; SB1T, 37 C; settings: tags: His-tagged, immobilized on magnetic His capture beads; label: Dy650 via hybridized 2'-OMe reverse oligo
Method: Competition binding assays were performed using a clone of an anti-fD Fab with an amino acid sequence of heavy chain variable region according to SEQ ID NO:7 and light chain variable region according to SEQ ID NO:8 (hereinafter, “AFD”) to further assess binding. For the competition assays, beads labelled with fD were first incubated with 50 nM round or individual aptamer, in 50 μl SB1T (with ssDNA and BSA), for 30 minutes at 37° C. The beads were then washed with SB1T to remove unbound aptamers and incubated with or without 100 nM AFD for 30 minutes at 37° C. Following incubation, the beads were washed three times with SB1T, and assayed by flow cytometry (FIG. 12). […] In cases where aptamers are sufficiently outcompeted by AFD as described above, such aptamers were presumed to be binding to the exosite or the self-inhibitory loop of fD.

[2] = target: T2, complement Factor D (fD) in C1q-depleted human serum (Homo sapiens, UniProt P00746 SEQ:1-228); test: inhibition; hemolysis; settings: protein: extract; tags: endogenous fD, about 9.6 nM in 10% serum; hairpin
Method: (§1) In V-bottom 96-well plates the following reagents were added to a final volume of 250 μL: appropriate volume of 1× Veronal buffer with 0.1% gelatin, 100 μL aptamer, 30 μL of C1q-depleted human serum and 20 μl RBCs. This mixture was incubated for 25 minutes at room temperature, then the reaction was stopped by the addition of 5 μL of 500 mM EDTA. The plate was centrifuged for 5 minutes at 500×g at room temperature, then 100 μL of supernatant was removed and the extent of RBC lysis was determined by measuring absorbance at 405 nm.
The following nine aptamers with 2′OMe-Gs in Stem 1 (S1) were synthesized: Aptamer 76 (2′OMe-Gs substituted in Stem 1 (S1) of Aptamer 39), Aptamer 116 (Aptamer comprising loop 2 (L2) of Aptamer 39 and Stem 1 (51) of Aptamer 15 with 2′OMe-Gs in Stem 1 (S1)), Aptamer 102 (4 base pair 2′OMe-G Stem 1 (S1) variant of Aptamer 76), Aptamer 104 (4 base pair 2′OMe-G Stem 1 (S1) variant of Aptamer 74), Aptamer 106 (Aptamer 88 with 2′OMe-G Stem 1 (S1)), Aptamer 107 (4 base pair 2′OMe-G Stem 1 (S1) variant of Aptamer 88), Aptamer 108 (3 base pair 2′OMe-G Stem 1 (S1) variant of Aptamer 92), Aptamer 109 (4 base pair 2′OMe-G Stem 1 (S1) variant of Aptamer 98) and, Aptamer 99 (4 base pair 2′OMe-G Stem 1 (S1) variant of Aptamer 60).

complement Factor D (fD) [3] = target: T1, complement Factor D (fD); test: SPR; settings: tags: amine-coupled to dextran chip for SPR; free in esterase assay; hairpin
Method: (§2) The binding affinity of aptamers for fD was determined by surface plasmon resonance (SPR) on a Reichert4 SPR System, where either aptamer or fD was immobilized as ligand on a solid surface and the interactant analyte was flowed in solution over the immobilized ligand (Table 20).

[4] = target: T2, complement Factor D (fD) in …; test: inhibition; hemolysis; settings: protein: extract; tags: endogenous fD, about 9.6 nM in 10% serum; hairpin; remark: listed apart in the source
Method: as §1
To this end, series of aptamer variants were designed based on the loop L2 sequences for Aptamers 15, 39, and 38 in which the sequence of S1 and S2 were altered while maintaining pairing (Table 17). These included Aptamers 90, and 94-98. Additionally, a truncate of Aptamer 38 (Aptamer 91) was designed with 3 base pairs in stem S1. The stem elements (S1 and S2) from this molecule were also used to generate Aptamer 92, which contained L2 from Aptamer 39.

complement Factor D (fD) [5] = target: T1, complement Factor D (fD); test: flow; bead-based direct binding; settings: tags: His-tagged recombinant, bead-immobilized via His capture beads (flow) or anti-His Eu (TR-FRET); hairpin
complement Factor D (fD) [6] = target: T1, complement Factor D (fD); test: TR-FRET, 25 C; settings: tags: His-tagged recombinant, bead-immobilized via His capture beads (flow) or anti-His Eu (TR-FRET); hairpin
Method: (§3) The binding affinity of aptamers for fD was determined in solution using a homogenous time-resolved fluorescence resonance energy transfer (TR-FRET) assay (Table 21). In brief, 2.5 nM recombinant human Factor D with a hexahistidine tag (SEQ ID NO:324) (His), 2.5 nM anti-His Europium, and varied concentrations of Dylight® 650-labeled aptamer was added to half-well black 96-well plates in TR-FRET buffer (50 mM MOPS, pH 7.4, 125 mM NaCl, 5 mM KCl, 0.1 mg/mL BSA, 50 μM CHAPS, 1 mM CaCl₂ and 1 mM MgCl₂). After 1 hour incubation at 25° C., binding activity was assessed using a BioTek® Cytation™ 5 plate reader. Affinity binding constants were calculated as the concentration at which 50% of aptamer is bound using a single site binding model, with values ranging from 0.66 nM to 2.5 nM (Table 21).

[7] = target: T2, complement Factor D (fD) in …; test: inhibition; hemolysis, sd 0.4; settings: protein: extract; tags: endogenous fD, about 9.6 nM in 10% serum; hairpin
Method: as §1
(§4) The potency of the PEG-aptamers P01, P04, P06, P07 and P08 compared to their non-pegylated counterparts was determined in the alternative complement-dependent hemolysis assay as described in Example 2.

[8] = target: T2, complement Factor D (fD) in …; test: inhibition; hemolysis, sd 0.8; settings: protein: extract; tags: endogenous fD, about 9.6 nM in 10% serum; hairpin
Method: as §1, §4

complement Factor D (fD) [9] = target: T1, complement Factor D (fD); test: TR-FRET, 50 mM MOPS pH 7.4, 125 mM NaCl, 1 mM Ca and Mg, 25 C; settings: tags: His-tagged recombinant, bead-immobilized via His capture beads (flow) or anti-His Eu (TR-FRET); hairpin
Method: as §3

complement Factor D (fD) [10] = target: T1, complement Factor D (fD); test: SPR; fD immobilized; settings: tags: amine-coupled to dextran chip for SPR; free in esterase assay; hairpin
Method: as §2

[11] = target: T2, complement Factor D (fD) in …; test: inhibition; hemolysis, sd 1.4; settings: protein: extract; tags: endogenous fD, about 9.6 nM in 10% serum; hairpin
Method: as §1, §4

[12] = target: T2, complement Factor D (fD) in …; test: inhibition; hemolysis, sd 0.5; settings: protein: extract; tags: endogenous fD, about 9.6 nM in 10% serum; hairpin
Method: as §1, §4

T1 sequence (P00746 26-253): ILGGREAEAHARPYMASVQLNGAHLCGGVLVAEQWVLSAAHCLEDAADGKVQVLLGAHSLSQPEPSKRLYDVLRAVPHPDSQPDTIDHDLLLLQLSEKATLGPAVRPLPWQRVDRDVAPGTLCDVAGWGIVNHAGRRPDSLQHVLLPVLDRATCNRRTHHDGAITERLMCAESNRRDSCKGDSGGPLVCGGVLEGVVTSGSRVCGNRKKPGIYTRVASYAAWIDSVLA
T2 sequence (P00746 26-253): as above

B1: C1 (ssRNA)
RNA: GGGAGUGUGUACGAGGCAUUAGGCCGCCACCCAAACUGCAGUCCUCGUAAGUCUGCCUGGCGGCUUUGAUACUUGAUCGCCCUAGAAGC
modifications: 2'-F G; 2'-OMe A, C, U
- binding result (complement Factor D (fD) [1]): binds

B2: C3 (ssRNA)
RNA: GGGAGUGUGUACGAGGCAUUAGGCCGCCACCUCGUUUGAUUGCGGUUGUUCGGCCGCGGGCGGCUUUGAUACUUGAUCGCCCUAGAAGC
modifications: 2'-F G; 2'-OMe A, C, U
- binding result (complement Factor D (fD) [1]): binds

Binder: GGCCUUGCCCGUAUUGGCGAUGGCGGGAAGUUUGGCC (ssRNA, 2'-F G except 2'-OMe G in stem 1; 2'-OMe A,C,U; 5' C6NH2; 3' idT) [Aptamer 109]
- IC50 [2]: < 10 nM
- Kd (complement Factor D (fD) [3]): 1.07 nM

Binder: GGCCUUGCCCGUAUUGGCGAUGGCGGGAAGUUUGGCC (ssRNA, 2'-F G; 2'-OMe A,C,U; 5' C6NH2; 3' idT) [Aptamer 98]
- IC50 [4]: < 10 nM

B3: C2 (ssRNA)
RNA: GGGAGUGUGUACGAGGCAUUAGUCCGCCGAAGUCUUUUGGCUCGGUUUUUUCAAGGUCGGCGGCUUUGAUACUUGAUCGCCCUAGAAGC
modifications: 2'-F G; 2'-OMe A, C, U
- binding result (complement Factor D (fD) [1]): binds

B4: Aptamer 1723 (ssRNA)
RNA: CCGCCUUGCCAGUAUUGGCUUAGGCUGGAAGUUUGGCGG
modifications: 2'-F G except 2'-OMe G at 3,12,24,27,28,35,36,38,39; 2'-OMe A,C,U; 5' C6SH; 3' idT
- Kd (complement Factor D (fD) [5]): 45 nM

Binder: CCGCCUUGCCAGUAUUGGCUUAGGCUGGAAGUUUGGCGG (ssRNA, 2'-F G except 2'-OMe G at 3,12,27,28,35,36,38,39; 2'-OMe A,C,U; 5' C6SH; 3' idT) [Aptamer 1722]
- Kd (complement Factor D (fD) [5]): 11 nM

Binder: CCGACUUGCCAGUAUUGGCUUAGGCUGGAAGUUUGUCGG (ssRNA, 2'-F G except 2'-OMe G in stem 1; 2'-OMe A,C,U; 5' C6NH2; 3' idT) [Aptamer 106]
- Kd (complement Factor D (fD) [6]): 0.66 nM
- Kd (complement Factor D (fD) [3]): 1.7 nM
- IC50 [7]: 5.2 nM

B5: P04 (PEGylated Aptamer 74) (ssRNA)
RNA: CCGCCUUGCCAGUAUUGGCUUAGGCUGGAAGUUUGGCGG
modifications: as Aptamer 74 (2'-OMe G at 3,35,36,38,39; other G 2'-F; 2'-OMe A,C,U); 5' 40 kDa branched PEG via C6NH2; 3' idT
- IC50 [8]: 3.2 nM

Binder: CCGCCUUGCCAGUAUUGGCUUAGGCUGGAAGUUUGGCGG (ssRNA, 2'-F G except 2'-OMe G at 3,35,36,38,39; 2'-OMe A,C,U; 5' C6NH2; 3' idT) [Aptamer 74]
- Kd (complement Factor D (fD) [9]): 2.5 nM
- Kd (complement Factor D (fD) [10]): 3.7 nM
- IC50 [11]: 7 nM
- Kd (complement Factor D (fD) [5]): 2.7 nM

Binder: CCGACUUGCCAGUAUUGGCUUAGGCUGGAAGUUUGUCGG (ssRNA, as Aptamer 106; 5' 40 kDa branched PEG via C6NH2; 3' idT) [P08 (PEGylated Aptamer 106)]
- IC50 [12]: 4.1 nM

Binder: CCGCCUUGCCAGUAUUGGCGAUGGCUGGAAGUUUGGCGG (ssRNA, 2'-F G except 2'-OMe G in stem 1; 2'-OMe A,C,U; 5' C6NH2; 3' idT) [Aptamer 116]
- IC50 [2]: < 10 nM
